{
  "source": "paper PMC2199739",
  "key": {"[1]": {"target": "urokinase-type plasminogen activator receptor (uPAR) on HT 1080 cells (human (endogenous in HT 1080)) (UniProt Q03405)", "experiment": "radioligand binding"}, "[2]": {"target": "human uPAR overexpressed on MCF-7 cells (clone M5) (human) (UniProt Q03405)", "experiment": "radioligand binding"}},
  "note": "pKd: −log10 of the molar value.",
  "data": [
    {"substance": "^125I-DIP-uPA (radioiodinated two chain urokinase-type plasminogen activator inactivated with diisopropylfluorophosphate) (ligand)", "values": [
      {"measurement": "pKd", "setting": "[1]", "value": 8.92},
      {"measurement": "pKd", "setting": "[2]", "value": 8.92}
    ]}
  ]
}
